{
  "source": "patent US6875741",
  "about": "(Novo Nordisk, dated 2005)",
  "data": [
    {"molecular_target": "T1, Soluble IGF-1R (R&D Systems, Cat. # 391-GR) (UniProt P08069 31-935, limits assumed)", "T1 construct": "extracellular domain; bought; also called sIGF-1R", "experiment": "phage ELISA ratios compared", "values": [
      {"binder": "RGMKEEVLVGGSTDPFYHKLSELLQGS", "note": "[B6Hα-3-F11-IR]", "IGF-1R/IR ratio comparison": 11.7},
      {"binder": "MMVVDGFYDALHQLVVAQSLG", "note": "[20E2A-3-D10-IGFR]", "IGF-1R/IR ratio comparison": 3.9},
      {"binder": "YRGMLVLGRSSDGAGKVAFERPARIGQTVFAVNFYDWFV", "note": "[A6L-0-E6-IR]", "IGF-1R/IR ratio comparison": 17},
      {"binder": "RGAVAGFHDQFYDWFDRQVSRVHKFG", "note": "[H2CA-4-H9-IGFR]", "IGF-1R/IR ratio comparison": 3},
      {"binder": "GCVVEWQKWHGASDPFYHKLSELGGCS", "note": "[B6Hα-3-F10-IR]", "IGF-1R/IR ratio comparison": 4.6},
      {"binder": "VNQSGSIHENFYDWFERQVSHQRGVR", "note": "[H2CA-4-F10-IGFR]", "IGF-1R/IR ratio comparison": 5.9},
      {"binder": "LRIANLFYQRLWDLAFGGGG", "note": "[20E2B-3-E8-IGFR]", "IGF-1R/IR ratio comparison": 11.1},
      {"binder": "SQAGSAFYAWFDQVLRTVHSA", "note": "[20E2Bβ-4-G6-IR]", "IGF-1R/IR ratio comparison": 3.3},
      {"binder": "QPAPDGFYSALMKLIGRGGVS", "note": "[20E2B-3-C8-IGFR]", "IGF-1R/IR ratio comparison": 8.9},
      {"binder": "APDPSDFQEIFYDWFVRQVSRMPGGG", "note": "[H2CA-1-A3-IGFR]", "IGF-1R/IR ratio comparison": 5.1},
      {"binder": "QPDHSYFYSLLQELVGSEERL", "note": "[20E2B-4-F9-IGFR]", "IGF-1R/IR ratio comparison": 7.7},
      {"binder": "GGTEVDFYRALERLVRGQLGL", "note": "[20E2B-3-D8-IGFR]", "IGF-1R/IR ratio comparison": 11.3},
      {"binder": "GGTKAVAKVGTRDDPFYHKLSELLQGS", "note": "[B6Hα-4-G8-IR]", "IGF-1R/IR ratio comparison": 3.6},
      {"binder": "SSCDGAGHESFYEWFVRQVSGCRSV", "note": "[H2CA-3-C8-IGFR]", "IGF-1R/IR ratio comparison": 4.8},
      {"binder": "YRGMLVLGRISGGAGKAASERPARIGQKVSAVNFYDWFV", "note": "[A6L-0-H3-IR]", "IGF-1R/IR ratio comparison": 13},
      {"binder": "IIGGFYSYFNSVLRLGT", "note": "[NNRPγ-4-A1-IR]", "IGF-1R/IR ratio comparison": 6},
      {"binder": "LQPCSGFYECIERLIGVKLSG", "note": "[20E2Bβ-4-G7-IR]", "IGF-1R/IR ratio comparison": 15.8},
      {"binder": "SSYGCDGFYLMLFSLGLVASQELEC", "note": "[20C-3-A1-IGFR]", "IGF-1R/IR ratio comparison": 13.7},
      {"binder": "RCEEKQAEVGPSSDPFYHKMSELLGCR", "note": "[B6Hα-3-E9-IR]", "IGF-1R/IR ratio comparison": 14.2}
    ]},
    {"molecular_target": "T2, soluble human insulin receptor-immunoglobulin heavy chain chimera (human, UniProt P06213 28-956)", "T2 construct": "extracellular domain; Heterotetramer; also called IR; sIR-Fc; not shown: immunoglobulin heavy chain constant domains replacing the transmembrane and intr", "experiment": "phage ELISA ratios compared", "values": [
      {"binder": "HLADGQFHEKFYDWFERQISSRCNDC", "note": "[H2CA-3-E11-IGFR]", "IR/IGF-1R ratio comparison": 0.5},
      {"binder": "VNQSGSIHENFYDWFERQVSHQRGVR", "note": "[H2CA-4-F10-IGFR]", "IR/IGF-1R ratio comparison": 0.2},
      {"binder": "APDPSDFQEIFYDWFVRQVSRMPGGG", "note": "[H2CA-1-A3-IGFR]", "IR/IGF-1R ratio comparison": 0.2},
      {"binder": "RGCNDDGGKGWSDDPFYHKLSELICGG", "note": "[B6Hα-1-A2-IR]", "IR/IGF-1R ratio comparison": 0.1},
      {"binder": "RGIVAMVEATEVGSDHDPFYHKLSELVQGS", "note": "[B6Hα-2-C7-IR]", "IR/IGF-1R ratio comparison": 0.1},
      {"binder": "SSCDGAGHESFYEWFVRQVSGCRSV", "note": "[H2CA-3-C8-IGFR]", "IR/IGF-1R ratio comparison": 0.2},
      {"binder": "CCTTEMVVMDARDDPFYHKLSELVTGG", "note": "[B6Hα-1-B5-IR]", "IR/IGF-1R ratio comparison": 0},
      {"binder": "GRTMAVMAAGGPDDPFYHKLSELVQGG", "note": "[B6Hα-2-D6-IR]", "IR/IGF-1R ratio comparison": 0.2}
    ]}
  ]
}
